Measurements published in paper doi:10.1101/2021.12.28.474374 (bioRxiv, 2021).

Molecular target: T1, Ctc1 OB-A (residues 1-183) (Tetrahymena, UniProt A0PGB2 1-183)
T1 sequence (looked up): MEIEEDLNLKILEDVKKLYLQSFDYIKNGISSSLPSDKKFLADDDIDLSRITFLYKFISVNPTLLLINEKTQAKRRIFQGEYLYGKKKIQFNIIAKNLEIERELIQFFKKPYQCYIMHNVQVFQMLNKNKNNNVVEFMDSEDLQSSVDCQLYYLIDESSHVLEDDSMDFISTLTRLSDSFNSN
Test: NMR titration

stoichiometry N: 1
B1: p50 peptide (residues 228-250) (peptide, UniProt D2CVN8 228-250, looked up)
peptide: CQQDDFGDGCLLQIVNYTHQSLK
